Test results: the RNAGym collection of RNA variant scans (doi:10.1073/pnas.2313332121)

B1: TPR t1 (parent)
chain: GACCAAUCUGCCCUCAGAGCUCGAGAACAUCUUCGGAUGCAGAGGAGGCAGGCUUCGGUGGCGCGAUAGCGCCAACGUCCUCAACCUCCAAUGCAUCCCACCACAUGAUGAUGCCUGAAGAGCCUUGGUUUUUUG

Variants of: B1
Experiment: polymerase ribozyme fitness, log enrichment relative to wild type (log ratio); higher = more active; in vitro selection for triplet polymerase activity
In short: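 PCR was used to build mutant libraries for each subunit of a heterodimeric triplet polymerase ribozyme, which were then transcribed. A single in vitro selection round, in triplicate, used a frozen incubation at −7 °C and recovered extended constructs by gel excision, streptavidin beads and RT-PCR. Fitness is the logarithm of genotype enrichment relative to wild-type enrichment, averaged over replicates with inverse-variance weights. The logarithm is base 2, and after Illumina sequencing only genotypes with ≥10 input reads and ≥1 read per output were kept.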

Row | Variant | polymerase ribozyme fitness (log ratio)
1 | C11G C64A | -5.88
2 | C8U G120U | 1.14
3 | U59A C88U A118U | 0.167
4 | G44A C98A A111U | -5.83
5 | C73G C101U | -0.446
6 | G58C G63C | -2.61
7 | C34G G120A | -5.16
8 | A5G G19A C72U U87A G117U | -4.71
9 | G42A U96A | -2.83
10 | G77U A100C A118U U129C | -1.45
11 | G63C C86A A118G | -2.3
12 | A24G G48A C64G A108U A121C | -6.51
13 | C13U G63U A90U G117C | -5.21
14 | U7G U109C | -3.87
15 | G35A C72U | -4.58
16 | C8G A16C U87A | -0.437
17 | A16U G17C C123U U126C | -2.6
18 | C15G G52U U87G | -3.21
19 | G77U C115G A118C | -5.42
20 | U54A G60C | -0.566
21 | G10C C13G | -0.638
22 | C40A C89G C94A | -4.16
23 | A37U A43G G60A | -2.78
24 | G61U A91G G93A A105U G117U | -6.5

Row | Variant | polymerase ribozyme fitness (log ratio)
25 | G36U C85A C104A | -3.96
26 | G63C C115G | -2.43
27 | A43U C49G C72A C86A | -2.29
28 | C40U G52U | -1.14
29 | C20U C72U C82U C115A | -1.91
30 | A2U A43U | -3.48
31 | A37U A74C A83U G117U | -3.26
32 | A6G C13G A111C U112A | -1.87
33 | G42A G69U | -0.125
34 | C4A G110U | -3.24
35 | C13A G23U G61C C88U C98G U112A G113A | -5.88
36 | U9C C15G A43U | -1.5
37 | C8G C88A A111C | 0.461
38 | C86G C88A | -1.96
39 | G61A C64U | -1.86
40 | G61C U87A | -1.83
41 | A37U C56G U87G | -1.26
42 | G117C G120U | -4.51
43 | U33C G45A | -5.98
44 | C101G G135C | -1.41
45 | U59C G128U | -2.04
46 | C8A G35U | -4.85
47 | G47A G60A C124G U133A | 1.3
48 | C15G C85U | -3.82

Row | Variant | polymerase ribozyme fitness (log ratio)
49 | G69U G71A A75U A103U C124G | -3.98
50 | G10U G39U G77C A100C | -2.58
51 | G45U G71A | -2.09
52 | C13G U21A G52C G61U A91C G120C | -2.36
53 | G10A G63A C86U | -1.07
54 | C98U U129G | -2.41
55 | A26U G71C U131A | -4.6
56 | G42U C123A | -1.18
57 | U9A A16U G63U U132A | -1
58 | G45A A118G | -1.02
59 | A6U C123G | 1.29
60 | A50U G63U C104A | -5.48
61 | C12A C49U | -1.61
62 | C3U A43C A50G C73U | -2.2
63 | A16C G58C | -2.65
64 | A2U C72U | -2.02
65 | C11A C85U U133G | -2.41
66 | C28U G45A | -2.04
67 | A2C C79A U129C | -2.39
68 | C3A C124G | 1.55
69 | C40U G113U | -2.53
70 | C115A U129C | -2.62
71 | A50U C101A | -2.09
72 | A5G G117C | -3.71

Row | Variant | polymerase ribozyme fitness (log ratio)
73 | G10C C20A G39C A46C | -5.66
74 | A16C G57U G71U U87A G127C | -6.26
75 | A16U C20A C56A | -5.28
76 | G57A G122C C123A U130C | -1.47
77 | A103C U133G | -4.45
78 | C22U G39U G60C C76U U78A C115G G127C | -6.22
79 | G51U G61C U87C C123A | -4.21
80 | U59G A90U | -0.957
81 | C8A U112A G128U | 0.095
82 | U54A C79A G93U C114U G117A | -6.48
83 | U78C A83G U106C | -1.19
84 | G69U A83U | -0.34
85 | G36A A66U C88A C104G G113A C123G C124A | -5.59
86 | C13A C123U | 0.793
87 | G63A C123U G128C | -1.87
88 | C62G U78G C88G | -3.52
89 | C89G G113A | -3.42
90 | A2C C11G C13G G42U A75G U81A | -4.31
91 | A5G C12U G35A G71A U78A C85G C124A | -5.49
92 | A18G G69A C88G G113C | -5.21
93 | C73U U96C C99U | -3.39
94 | A6G U7A | 0.167
95 | G45A C49A C72G G128A | -3.14
96 | C8A A41U U112C | 0.774

Row | Variant | polymerase ribozyme fitness (log ratio)
97 | C28G G113C | -6.23
98 | C72A C80U C114G | -3.31
99 | C3U G10U A29G G44U G57C C82U A105U G120C | -6.47
100 | A5G C13A C20U U129C | -4.45
101 | C101U A103U G113U | -7.03
102 | C22G A50C A75G | -3.94
103 | G77A U78C C115G | -2.5
104 | C40U A100G | -4.16
105 | C49U G77U C123G | 0.718
106 | A2U C28U C49A C101G U106A | -4.56
107 | G39A C102U A118G | -2.73
108 | A37U C72U A75U U78G C124A | 1.33
109 | G47U G48U C79U | -2.83
110 | C15G A46G C56G | -4.02
111 | U9A U78A | -0.206
112 | G60U C104A | -1.7
113 | A29U A43G U54C G63A G117C | -7.13
114 | C8G G57A U81A G120A | 0.685
115 | G44U U96A | -2.64
116 | A37C G39C | -4.38
117 | C31G C98G G110U | -6.25
118 | A83U A91C G128A | -2.84
119 | A41U A68G | -5.2
120 | C62A C99U C124A | -4.32

Row | Variant | polymerase ribozyme fitness (log ratio)
121 | G47U G69U | -0.915
122 | C20U A27C G117U | -6
123 | C11G U14A A46U G61A C62U | -2.33
124 | C11G C22G G36A C70U A83C | -5.41
125 | A26C A43G G63C G69A C115G | -4.47
126 | A5G G42U C115U | -1.79
127 | G10C G63A A75G C123U | -0.173
128 | G63C U81G G120A | -3.19
129 | A24G A41C A46U C53A U125A | -4.79
130 | C22U C56A | -5.17
131 | C72U U78C C86G C115U | -1.64
132 | G61U A103G | -4.75
133 | G61A A75U U96G A121G U129C G135U | 0.938
134 | G61C A111C | -1.98
135 | U96G A100U C104U | -0.962
136 | C12G C15G G45A C49G C85U C124U | -2.82
137 | C3G U112A C115A | -2.03
138 | A24G G60A C80U C88A | -4.67
139 | C22U G36A C76G | -5.14
140 | C22G A103U | -4.6
141 | G36A C82U C123G | 0.9
142 | A5C C8G A26U | -1.68
143 | C11G A66U U106G | -3.36
144 | U21C G52U G60C | -1.61

Row | Variant | polymerase ribozyme fitness (log ratio)
145 | A46C C49U A83U | -4.1
146 | A16G A43G C124U U125A | -1.48
147 | A37U G61U | -0.28
148 | C13A A100U | -2.85
149 | G61U G110U | -0.117
150 | G61U G110C | -2.85
151 | C49G C62A U78C | -1.5
152 | U9A C56U C73U | 0.233
153 | C72U G120A | 0.502
154 | A90C C94U | -1.34
155 | C62U C104A | -1.29
156 | U112A U131A | 1.02
157 | A5U G120U | 0.128
158 | G48U G113A | -1.18
159 | A46U A66G G77A | -1.99
160 | C8G G39U C80A | -2.47
161 | A29U G61A | -1.45
162 | A43G G61U C82G | -2.27
163 | G63A C79A | -3.48
164 | C70G A83G | -4.15
165 | C79U U106A U116C U126C | -1.17
166 | C102U G117U | -4.91
167 | C31A | -5.84
